US5574007A, “Polypeptide capable of interacting with thrombin” (Asahi Kasei Kogyo Kabushiki Kaisha, priority 1990, dated 1996)

Assays:
[1] = test system: thrombin-catalyzed platelet aggregation; assay: Platelet aggregation-inhibiting activity (Platelet Rich Plasma, HEMA TRACER IV); type: cell-based; details: polypeptide in molar amount equal to or more than thrombin; polypeptide from COS-1 or CHO cells
Method: The activity of each of the polypeptides of the present invention to inhibit the thrombin-catalyzed platelet aggregation is evaluated using platelet aggregation measuring apparatus HEMA TRACER IV (manufactured and sold by NIKO Bioscience, Inc., Japan). Measurement is carried out according to the manual attached thereto. When 40 μl of a 20 NIH unit/ml thrombin solution (manufactured and sold by SIGMA Chemical Co., U.S.A., T 6759) is added to 180 μl of a Platelet Rich Plasma (PRP) platelet solution (3×10^5 cells/μl) and incubated, the aggregation of platelets occurs. […] The aggregation of platelets is determined on the basis of the transparency, assuming the transparency of Platelet Poor Plasma (PPP) solution as 100%. The ratio of platelet aggregation is plotted against the incubation time (0 min: the time when thrombin or a mixture of thrombin and one of the polypeptides is added to the PRP solution). It is confirmed that the platelet aggregation is inhibited when one of the polypeptides of the present invention is added.

[2] = target: T1, thrombin-catalyzed activation of protein C (Homo sapiens, UniProt P00734); assay: Activated protein C formation against reaction time with purified polypeptide (Example 4-(6)); type: biochemical
T1 construct: are added 50 μg/ml protein C, 5 nM thrombin and 5 nM of each of the purified polypeptides
Method: To 0.02M Tris-HCl buffer (pH 8.5) containing 0.1M NaCl, 0.5 mM CaCl2 and 10 mg/ml BSA are added 50 μg/ml protein C, 5 nM thrombin and 5 nM of each of the purified polypeptides of the present invention, and reacted at 37° C. To each of the reaction mixtures are added 300 μg/ml antithrombin III (manufactured and sold by Sigma Chemical Company, U.S.A.) and 5 mM EDTA to terminate the reaction. Then, the amount of the activated protein C produced by the reaction is determined by the method described in Example 1-(3) in which a synthetic substrate is used.

[3] = target: T2, thrombin-catalyzed conversion of fibrinogen to fibrin (Homo sapiens, UniProt P00734); assay: Anticoagulating activity: clotting time of a fibrinogen solution; type: biochemical; details: 0 to 50 nM polypeptide, 10 nM thrombin; polypeptide from COS-1 or CHO cells
T2 construct: Then, 10 nM thrombin is added to the mixture
Method: The activity of each of the polypeptides of the present invention to inhibit the thrombin-catalyzed conversion of fibrinogen to fibrin so as to inhibit blood coagulation, is determined by measuring clotting time using Coagulometer KC-10A (manufactured and sold by Heinrich Amelung A.G., Germany). Illustratively stated, to 0.05M Tris-HCl buffer (pH 7.5) containing 5 mM CaCl2 and 0.1M NaCl is added 3.0 μg of fibrinogen (Fraction I, manufactured and sold by Sigma Chemical Company, U.S.A.). To the resultant mixture is added 0 to 50 nM of each of the purified polypeptides of the present invention. Then, 10 nM thrombin is added to the mixture in such an amount that the total amount of the mixture becomes 0.4 ml, and then the coagulation time of the mixture is measured.

thrombin = thrombin (Homo sapiens, UniProt P00734); assay: Capability of binding to thrombin of thrombomodulin deletion polypeptides; details: expressed in COS-1 cells, purified
[4] = target: T1, thrombin-catalyzed activation of protein C; assay: Activity to promote the activation of protein C (Example 9-(4)); type: biochemical
Method: With respect to the polypeptide purified in Example 9-(3), the activity to promote the activation of protein C is measured according to the following method. That is, 10 μl of a peptide solution (10 nM), 10 μl of thrombin (15 nM), 10 μl of protein C (3.2 μM), 10 μl of 10×Assay buffer [0.5M Tris HCl (pH 7.5) containing 1% BSA, 1M NaCl and 20 mM CaCl2 ] and 60 μl of distilled water are mixed together. The mixture is reacted at 37° C. for one hour, and antithrombin III and hepalin are added at final concentrations of 100 nM and lu/ml, respectively, thereby stopping the reaction. To measure the concentration of activated protein C, the concentration of AMC ([…]) liberated from a 200 μM substrate of Boc-Leu-Ser-Thr-Arg-MCA in a buffer containing 0.05M Tris HCl (pH 8.0) and 0.1M CsCl is measured at an excitation wavelength of 380 nm and a measuring wavelength of 440 nm.

B1: E456GlaAsp: polypeptide from PTTM2 CHO cells transfected with pSV2PTTMM6 (prothrombin leader), gamma-carboxyglutamic acid confirmed (protein)
chain: PVEDPCFRANCEYQCQPLNQTSYLCVCAEGFAPIPHEPHRCQMFCNQTACPADCDPNTQASCECPEGYILDDGFICTDIDECENGGFCSGVCHNLPGTFECICGPDSALVRHIGTDC
modifications: gamma-carboxyglutamic acid (Gla) in place of the Glu inserted before Asp367 (third residue of the purified polypeptide, where Edman degradation detected no amino acid); Gla confirmed by amino acid anal
B1 was tested, and the “thrombin-catalyzed platelet aggregation (in words)” value [1] was “inhibited”, the “amount of activated protein C with reaction time (in words)” value ([2]; 5 nM polypeptide, 5 nM thrombin, 50 μg/ml protein C, 37° C., polypeptide from COS-1 or CHO cells) was “increased with the lapse of reaction time” and the “amount of protein C activated, larger than in the presence of E456Glu” value ([2]; 30 min after the polypeptide addition) was 80%. The “clotting time of fibrinogen solution against amount of polypeptide (in words)” value [3] was “the longer the clotting time”.

B2: polypeptide comprised of the 407th to 480th amino acid residues of human thrombomodulin: deletion polypeptide expressed in COS-1 cells using vector pSV2 (protein)
chain: FCNQTACPADCDPNTQASCECPEGYILDDGFICTDIDECENGGFCSGVCHNLPGTFECICGPDSALVRHIGTDC
For B2, the “capability of binding to thrombin (in words)” value (thrombin) was “had the capability of binding to thrombin”.

B3: E45: polypeptide of the 367th to 442nd amino acid residues of human thrombomodulin (pSV2TMD9) (protein)
chain: DPCFRANCEYQCQPLNQTSYLCVCAEGFAPIPHEPHRCQMFCNQTACPADCDPNTQASCECPEGYILDDGFICTDI
B3 was tested, and the “activity relative to that of the 114-amino acid polypeptide” value [4] was “about one-tenth” and the “production of activated protein C” value ([4]; peptide solution 10 nM, thrombin 15 nM, protein C 3.2 μM, 37° C., one hour) was 1.7 pmol.

B4: polypeptide comprised of the 366th to 442nd amino acid residues of human thrombomodulin: deletion polypeptide expressed in COS-1 cells using vector pSV2 (protein)
chain: VDPCFRANCEYQCQPLNQTSYLCVCAEGFAPIPHEPHRCQMFCNQTACPADCDPNTQASCECPEGYILDDGFICTDI
In the case of B4, the “capability of binding to thrombin (in words)” value (thrombin) is reported as “had the capability of binding to thrombin”.
